Molecular target: HoxG, large subunit of the membrane-bound [NiFe]-hydrogenase (MBH) from Cupriavidus necator, isolated, with N-terminal Strep-tag II (Cupriavidus necator) (UniProt P31891)
Assay: SEC; HoxG at higher concentrations (series 0.5, 2.5, 12.5 and 60 mg/ml); Superdex 200 Increase 10/300 GL; 50 mM KiPO4, 150 mM NaCl, pH 7.4, 4 °C; sizes from a calibration curve of reference proteins

HoxG, large subunit of the membrane-bound [NiFe]-hydrogenase (MBH) from Cupriavidus necator, isolated, with N-terminal Strep-tag II (from UniProt P31891 1-618) (natural protein)
stoichiometry N: 2

From article PMC9886862
